Assay results taken from US20170267768A1 (University of California, published 2017).

Key:
[1] = target: Staphylococcus aureus Protein A (Staphylococcus aureus, UniProt P38507 37-477); assay: Protein A binding measured as in Example 1; TS1C is the reference
Experimental: Protein A binding for multiple samples was determined as follows: scFvs expressed by mammalian cells were obtained from cultures by centrifugation at 4000 g for 15 minutes to remove cells. The scFv titer in the supernatant was determined using Fortebio. Protein A binding was assayed using a 96 well Protein A plate (Protein A 96 well protein purification plate (GE Healthcare: Life Sciences, Protein A HP MultiTrap®) which contains Protein A-conjugated resin in wells with porous bottoms, allowing liquid in the wells to be collected from underneath via centrifugation or suction. Each well of the plate was washed with 1×PBS, and supernatant containing 250 μg of protein was loaded into each well. The supernatant is then separated from the Protein A resin using a vacuum manifold (Whatman®) with 10 mbar of pressure and the flow-through from each well separately collected into empty wells of a standard 96 well plate. The wells of the Protein A plate were then washed with 600 μL of 1×PBS (pH 7.6). To elute the resin-bound Ab, 200 μL of 0.1M acetic acid was added to each well and incubated at room temperature for 3-10 minutes. […]
The fold improvement in Protein A binding capacity (as compared to TS1C) was measured as described in Example 1.

[2] = target: T1, His6-tagged recombinant human EphA2 protein (human, UniProt P29317 25-534); assay: BLI (Octet Red 96); His6-EphA2 on anti-His sensors; scFv-PEG-DSPE conjugate at 2.5 ug/ml after thermal stress
T1 construct: also called his-tagged recombinant, human EphA2; human EphA2 with c-terminal His6
Excerpt: (§1) A nucleic acid encoding human EphA2 with c-terminal His6 appended was cloned into expression vector pCEP4 (Invitrogen® # V044-50) and transiently expressed in FreeStyle™ 293 cells (Invitrogen® #K900001) following polyethylenenimine transfection. The His6-tagged recombinant human EphA2 protein was purified from the cell culture medium using Ni-NTA Sepharose™ resin (Quiagen®, USA). Anti-His sensors for the fortéBIO® Octet Red 96 system (fortéBIO®-Pall® #18-5116) were coated with his-tagged recombinant, human EphA2 at concentration of 10 μg/ml protein for 300 sec, and a background run was carried out in PBS for 60 sec. For scFv-PEG-DSPE conjugates, the sensors were then incubated with 2.5 μg/ml (Study 1) or 4.0 μg/ml (Study 2) of the conjugate in PBS, pH 7.4, and the slopes of association curves were determined between 3-13 seconds of incubation, corrected for the buffer-only background, and compared across the variants. ScFv-linked liposomes were incubated with the sensors in PBS at 0.025 mM of liposome phospholipid, the slopes of the association curves were determined between 3-20 seconds of incubation, corrected for the buffer-only background, and compared across the variants.
(§2) Results are shown below in Table 6, in which column A gives scFv identifiers; column B indicates percent yield of scFv/lipopolymer linker conjugates; column C gives percent scFv-conjugate (not liposome-bound) EphA2 binding on-rate; column D gives percent scFv-conjugated-liposome EphA2 binding on-rate; and columns E (Study 1) and F (study 2) give percent antigen binding on-rate remaining in the scFv-conjugate (not liposome-bound) following thermal stress.

[3] = target: T1, His6-tagged recombinant human EphA2 …; assay: BLI (Octet Red 96); His6-EphA2 on anti-His sensors; scFv-PEG-DSPE conjugate at 4.0 ug/ml after thermal stress
Excerpt: as §1, §2

[4] = target: T1, His6-tagged recombinant human EphA2 …; assay: BLI (Octet Red 96); His6-EphA2 on anti-His sensors; slope of association curve of scFv-PEG-DSPE conjugate; TS1C printed as 100
Excerpt: as §1, §2

[5] = target: T1, His6-tagged recombinant human EphA2 …; assay: BLI (Octet Red 96); His6-EphA2 on anti-His sensors; slope of association curve of scFv-linked liposomes at 0.025 mM phospholipid; TS1C printed as 100
Excerpt: as §1, §2

[6] = target: T2, murine EphA2 on CT-26 cells (mouse, UniProt Q03145 26-977); assay: CLIA: scFv-decorated fluorescent NTA(Ni) liposomes on CT-26 cells, FACS
T2 construct: whole, on cells
Experimental: The concentration of liposomal phospholipid was then determined after acid digestion using spectrophotometric phosphomolybdate method. Prior to incubation with cells the liposomes were diluted to 0.4 mM phospholipid in Hank's Balanced Salt Solution (HBSS), and NiSO₄ was added to 0.1 mM. The hexahistidine scFvs were diluted into cell culture medium (see below) to the concentration of 25 μg/mL of scFv and mixed with equal volume of the liposome solution (“fluorescent NTA-liposome/scFv mixture”).
By measuring fluorescence of the cells prior to and after incubation/wash with imidazole, which disrupts His6/Ni complexes and thereby releases and removes external (but not internalized) histidine-tagged scFv, the percentage of Ab internalized is quantitated. The test cells (human cancer cell lines OVCAR-3 and U-251 and the murine cancer cell line CT-26) were grown in the adherent state in […] cell culture medium supplemented with 10% FBS, 1× penicillin/streptomycin, and L-glutamine, to 90% confluence and harvested using 0.25% trypsin-EDTA. […] The relative amounts of cell-associated liposomes were evaluated by FACS (Cy5 fluorescence channel). The “binding” amount included both cell surface-bound and internalized liposomes and was proportional to cell fluorescence without imidazole wash. […]

[7] = target: T3, human EphA2 on OVCAR-3 and U-251 cells (human, UniProt P29317 24-976); assay: CLIA: scFv-decorated fluorescent NTA(Ni) liposomes on OVCAR-3 and U-251 cells, FACS
T3 construct: whole, on cells; also called EphA2 receptors
Experimental: To test the anti-EphA2 activity of these variant scFvs, the binding and internalization of liposomes externally decorated with these Abs was assayed on cell lines expressing EphA2. A rapid high-throughput Chelated Ligand-induced Internalization Assay (CLIA) (Nielsen et al., BMC immunology, 2006, 7:24) was used to screen anti-EphA2-scFv-targeted liposomes for binding and internalization assessment. Two cell lines that express high levels of EphA2 receptors, OVCAR-3 and U-251, were tested, as well as a murine EphA2-expressing mouse cell line, CT-26 (to test whether cross-reactivity to murine EphA2 was retained by the engineered scFvs). Via nickel-binding by each scFv's c-terminal His6 tag, the scFvs were bound to fluorescently labeled liposomes comprising an NTA(Ni) conjugated lipid (Dil5-NTA liposomes).
Dil5-NTA liposomes were prepared as follows. The NTA conjugated lipid, DOD-Tri-NTA, was synthesized as described in Huang et al., Bioconjugate chemistry, 2006, vol. 17, p. 1592-1600. […] The concentration of liposomal phospholipid was then determined after acid digestion using spectrophotometric phosphomolybdate method.

T1 sequence (P29317 25-534 limits assumed): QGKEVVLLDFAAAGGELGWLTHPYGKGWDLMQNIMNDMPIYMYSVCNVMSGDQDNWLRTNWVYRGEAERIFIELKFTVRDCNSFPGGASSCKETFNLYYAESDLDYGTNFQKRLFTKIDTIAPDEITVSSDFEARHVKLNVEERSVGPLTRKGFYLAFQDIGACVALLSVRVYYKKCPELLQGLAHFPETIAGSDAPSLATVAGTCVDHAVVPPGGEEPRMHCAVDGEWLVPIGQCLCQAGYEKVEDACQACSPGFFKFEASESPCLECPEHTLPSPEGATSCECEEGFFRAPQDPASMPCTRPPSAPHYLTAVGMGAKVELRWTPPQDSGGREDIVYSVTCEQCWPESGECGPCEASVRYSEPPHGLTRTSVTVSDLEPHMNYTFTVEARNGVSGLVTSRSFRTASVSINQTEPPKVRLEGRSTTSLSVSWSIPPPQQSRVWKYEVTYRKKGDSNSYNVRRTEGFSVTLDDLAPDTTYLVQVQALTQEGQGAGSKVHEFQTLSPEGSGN
T2 sequence (Q03145 26-977): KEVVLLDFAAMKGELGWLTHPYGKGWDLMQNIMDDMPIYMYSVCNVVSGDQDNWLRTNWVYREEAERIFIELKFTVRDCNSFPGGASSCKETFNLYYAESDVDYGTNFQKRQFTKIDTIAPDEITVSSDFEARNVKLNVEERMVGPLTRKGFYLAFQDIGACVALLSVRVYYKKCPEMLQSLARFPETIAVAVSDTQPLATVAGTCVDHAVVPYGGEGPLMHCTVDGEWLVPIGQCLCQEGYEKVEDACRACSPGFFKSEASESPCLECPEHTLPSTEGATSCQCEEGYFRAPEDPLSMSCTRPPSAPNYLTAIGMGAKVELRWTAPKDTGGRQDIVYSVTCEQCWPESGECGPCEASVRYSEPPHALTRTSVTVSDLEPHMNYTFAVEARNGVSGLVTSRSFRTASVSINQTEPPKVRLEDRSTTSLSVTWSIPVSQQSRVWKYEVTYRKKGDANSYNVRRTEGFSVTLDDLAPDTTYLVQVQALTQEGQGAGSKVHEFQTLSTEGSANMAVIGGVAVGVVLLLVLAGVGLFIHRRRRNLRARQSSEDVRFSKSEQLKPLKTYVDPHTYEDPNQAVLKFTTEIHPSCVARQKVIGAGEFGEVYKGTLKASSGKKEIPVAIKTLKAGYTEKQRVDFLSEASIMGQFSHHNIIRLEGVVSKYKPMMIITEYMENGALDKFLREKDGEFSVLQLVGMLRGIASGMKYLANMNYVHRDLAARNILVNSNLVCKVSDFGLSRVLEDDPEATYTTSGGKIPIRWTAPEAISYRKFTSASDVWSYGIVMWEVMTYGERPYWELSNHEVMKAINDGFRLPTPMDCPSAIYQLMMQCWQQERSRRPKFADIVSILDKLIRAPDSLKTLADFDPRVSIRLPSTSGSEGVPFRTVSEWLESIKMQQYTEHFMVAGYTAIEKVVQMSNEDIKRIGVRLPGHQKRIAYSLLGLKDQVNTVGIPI
T3 sequence (P29317 24-976): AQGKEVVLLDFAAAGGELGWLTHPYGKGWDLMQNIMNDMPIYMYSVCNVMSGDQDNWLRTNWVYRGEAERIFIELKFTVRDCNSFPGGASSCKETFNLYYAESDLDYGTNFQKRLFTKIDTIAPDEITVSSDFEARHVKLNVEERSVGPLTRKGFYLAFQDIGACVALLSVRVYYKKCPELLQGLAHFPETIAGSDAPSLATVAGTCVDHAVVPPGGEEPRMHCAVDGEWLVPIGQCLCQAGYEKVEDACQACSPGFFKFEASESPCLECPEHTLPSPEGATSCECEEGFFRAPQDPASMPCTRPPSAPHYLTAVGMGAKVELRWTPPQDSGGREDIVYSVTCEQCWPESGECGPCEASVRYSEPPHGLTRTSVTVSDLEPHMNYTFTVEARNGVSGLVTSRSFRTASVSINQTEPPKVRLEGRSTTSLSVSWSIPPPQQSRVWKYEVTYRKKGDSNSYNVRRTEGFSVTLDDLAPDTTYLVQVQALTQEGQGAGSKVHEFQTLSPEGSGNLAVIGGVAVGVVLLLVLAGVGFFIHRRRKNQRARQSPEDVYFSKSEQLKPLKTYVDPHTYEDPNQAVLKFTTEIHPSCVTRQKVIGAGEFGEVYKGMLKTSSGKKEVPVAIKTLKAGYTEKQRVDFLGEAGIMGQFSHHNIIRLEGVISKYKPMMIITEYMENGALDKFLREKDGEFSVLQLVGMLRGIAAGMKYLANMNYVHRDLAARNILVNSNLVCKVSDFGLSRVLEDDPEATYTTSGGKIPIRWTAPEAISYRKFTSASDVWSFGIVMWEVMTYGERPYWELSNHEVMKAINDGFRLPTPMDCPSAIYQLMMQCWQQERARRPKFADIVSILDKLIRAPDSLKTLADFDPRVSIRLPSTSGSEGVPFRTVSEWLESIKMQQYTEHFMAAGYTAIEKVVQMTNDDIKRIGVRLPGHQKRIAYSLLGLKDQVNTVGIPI

| Binder | Fold Improvement in Protein A Binding Capacity [1] [fold] | percent antigen binding on-rate remaining in the scFv-conjugate following thermal stress (Study 1) [2] [%] | percent antigen binding on-rate remaining in the scFv-conjugate following thermal stress (Study 2) [3] [%] | percent scFv-conjugate (not liposome-bound) EphA2 binding on-rate [4] [%] | percent scFv-conjugated-liposome EphA2 binding on-rate [5] [%] | binding result [6] | binding result [7] |
| --- | --- | --- | --- | --- | --- | --- | --- |
| TS1C (scFv, also called parental clone TS1 (C form)) scFv: QVQLVQSGGGLVQPGGSLRLSCAASGFTFSSYAMHWVRQAPGKGLEWVAVISYDGSNKYYADSVKGRFTISRDNSKNTLYLQMNSLRAEDTAVYYCARASVGATGPFDIWGQGTLVTVSSASTGGGGSGGGGSGGGGSGGGGSSSELTQPPSVSVAPGQTVTITCQGDSLRSYYASWYQQKPGTAPKLLIYGENNRPSGVPDRFSGSSSGTSASLTITGAQAEDEADYYCNSRDSSGTHLTVFGGGTKLTVLGGGSGGC | 1 | 25.2 | 13 | 100 | 100 | – | – |
| scFv TS1 (scFv) scFv: QVQLVQSGGGLVQPGGSLRLSCAASGFTFSSYAMHWVRQAPGKGLEWVAVISYDGSNKYYADSVKGRFTISRDNSKNTLYLQMNSLRAEDTAVYYCARASVGATGPFDIWGQGTLVTVSSASTGGGGSGGGGSGGGGSGGGGSSSELTQPPSVSVAPGQTVTITCQGDSLRSYYASWYQQKPGTAPKLLIYGENNRPSGVPDRFSGSSSGTSASLTITGAQAEDEADYYCNSRDSSGTHLTVFGGGTKLTVLG | – | – | – | – | – | binds | binds |
